What was measured:
[1] = target: uPA receptor (urokinase-type plasminogen activator receptor) on U937 cells (UniProt Q03405); assay: competition receptor-binding assay on U937 cells, ATF as competing ligand, metallopeptide at 1 µM
[2] = target: oxytocin receptor of rat uterus cell membranes (rat) (UniProt P70536); assay: competition with 3H-oxytocin on rat uterus membranes, metallopeptide at 1 µM
[3] = target: vasopressin-1 receptor of rat liver cell membranes (rat) (UniProt P30560); assay: competition with 3H-vasopressin-1 antagonist on rat liver membranes, metallopeptide at 1 µM
[4] = target: angiotensin-II receptor of human neuroblastoma cells (KAN-TS) (human); assay: competition with 125I-Tyr4,Sar1,Ile8-angiotensin II on KAN-TS human neuroblastoma cell membranes, metallopeptide at 1 µM
Chain of angiotensin-II receptor of human neuroblastoma cells (KAN-TS) (human) (P30556 whole entry): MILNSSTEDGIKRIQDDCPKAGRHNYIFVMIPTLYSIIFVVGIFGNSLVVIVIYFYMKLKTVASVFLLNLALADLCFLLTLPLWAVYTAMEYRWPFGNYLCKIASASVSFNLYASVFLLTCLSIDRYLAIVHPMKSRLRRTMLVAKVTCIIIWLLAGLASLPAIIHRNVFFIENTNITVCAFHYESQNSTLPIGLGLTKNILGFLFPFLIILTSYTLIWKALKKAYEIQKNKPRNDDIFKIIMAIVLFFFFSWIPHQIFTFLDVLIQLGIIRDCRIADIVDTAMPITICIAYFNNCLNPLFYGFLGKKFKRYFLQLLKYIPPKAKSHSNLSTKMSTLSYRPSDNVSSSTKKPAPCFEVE

Chain of uPA receptor (urokinase-type plasminogen activator receptor) on U937 cells (Q03405 23-305): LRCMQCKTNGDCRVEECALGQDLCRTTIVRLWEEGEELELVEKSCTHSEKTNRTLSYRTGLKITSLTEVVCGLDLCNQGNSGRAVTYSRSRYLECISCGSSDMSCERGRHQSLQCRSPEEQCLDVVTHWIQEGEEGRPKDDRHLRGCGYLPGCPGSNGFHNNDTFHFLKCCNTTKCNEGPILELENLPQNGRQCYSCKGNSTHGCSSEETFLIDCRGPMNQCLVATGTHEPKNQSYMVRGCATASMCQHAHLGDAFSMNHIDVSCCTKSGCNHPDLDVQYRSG
Chain of vasopressin-1 receptor of rat liver cell membranes (rat) (P30560 whole entry): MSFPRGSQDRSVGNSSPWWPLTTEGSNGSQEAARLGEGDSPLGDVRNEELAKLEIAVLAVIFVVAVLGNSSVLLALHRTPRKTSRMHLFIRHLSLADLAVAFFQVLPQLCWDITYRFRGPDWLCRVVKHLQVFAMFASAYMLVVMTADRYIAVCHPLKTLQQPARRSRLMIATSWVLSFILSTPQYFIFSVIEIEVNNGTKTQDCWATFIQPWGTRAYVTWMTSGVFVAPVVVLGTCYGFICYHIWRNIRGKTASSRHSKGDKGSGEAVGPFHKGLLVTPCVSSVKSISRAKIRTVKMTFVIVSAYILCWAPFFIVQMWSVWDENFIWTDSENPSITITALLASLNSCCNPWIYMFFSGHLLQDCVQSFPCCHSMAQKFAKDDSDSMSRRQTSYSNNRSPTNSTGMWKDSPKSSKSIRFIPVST
Chain of oxytocin receptor of rat uterus cell membranes (rat) (P70536 whole entry): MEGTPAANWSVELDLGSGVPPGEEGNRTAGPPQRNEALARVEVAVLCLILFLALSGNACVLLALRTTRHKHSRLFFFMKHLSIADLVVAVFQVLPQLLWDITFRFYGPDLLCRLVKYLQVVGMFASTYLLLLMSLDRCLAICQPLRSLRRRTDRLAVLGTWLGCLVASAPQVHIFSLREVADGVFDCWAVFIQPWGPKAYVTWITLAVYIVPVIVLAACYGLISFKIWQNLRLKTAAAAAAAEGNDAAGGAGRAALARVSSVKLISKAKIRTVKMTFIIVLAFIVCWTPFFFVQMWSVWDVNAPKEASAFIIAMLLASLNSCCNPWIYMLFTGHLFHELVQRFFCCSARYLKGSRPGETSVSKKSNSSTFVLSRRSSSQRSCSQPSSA

Substance | % Inhibition at 1 µM [1] | % Inhibition at 1 µM [2] | % Inhibition at 1 µM [3] | also measured
Re-complexed Ac-Val-Ser-Asn-Cys-Lys-Tyr-Phe-Ser-Asn-Ile-His-Trp-NH2 (SEQ ID NO:5) (peptide) | 0% | – | – | –
Re-complexed Ac-Val-Ser-Asn-Lys-Cys-Tyr-Phe-Ser-Asn-Ile-His-Trp-NH2 (SEQ ID NO:6) (peptide) | 13% | – | – | –
Re-complexed Ac-Val-Ser-Asn-Lys-Tyr-Cys-Phe-Ser-Asn-Ile-His-Trp-NH2 (SEQ ID NO:7) (peptide) | 18% | – | – | –
Re-complexed Ac-Val-Ser-Asn-Lys-Tyr-Phe-Cys-Ser-Asn-Ile-His-Trp-NH2 (SEQ ID NO:8) (peptide) | 0% | – | – | –
Re-complexed Ac-Val-Ser-Asn-Lys-Tyr-Phe-Ser-Asn-Cys-Ile-His-Trp-NH2 (SEQ ID NO:10) (peptide) | 32% | – | – | –
Re-complexed Ac-Val-Ser-Asn-Lys-Tyr-Phe-Ser-Asn-Ile-Cys-His-Trp-NH2 (SEQ ID NO:11) (peptide) | 0% | – | – | –
Re-complexed Ac-Val-Ser-Asn-Lys-Tyr-Phe-Ser-Asn-Ile-His-Cys-Trp-NH2 (SEQ ID NO:3) (peptide) | 106% | – | – | –
Re-complexed Ac-Val-Ser-Asn-Lys-Tyr-Phe-Ser-Asn-Ile-His-Trp-Cys-NH2 (SEQ ID NO:12) (peptide) | 0% | – | – | –
Re-complexed Ac-Val-Ser-Asn-Lys-Tyr-Phe-Ser-Cys-Asn-Ile-His-Trp-NH2 (SEQ ID NO:9) (peptide) | 35% | – | – | –
Re-complexed Ac-Val-Ser-Cys-Asn-Lys-Tyr-Phe-Ser-Asn-Ile-His-Trp-NH2 (SEQ ID NO:4) (peptide) | 0% | – | – | –
Re-complexed Ala-Tyr-Cys-Ile-Gln-Asn-Ala-Pro-Leu-Gly-NH2 (SEQ ID NO:158) (peptide) | – | 6% | 1% | –
Re-complexed Ala-Tyr-Ile-Cys-Gln-Asn-Ala-Pro-Leu-Gly-NH2 (SEQ ID NO:157) (peptide) | – | 0% | 0% | –
Re-complexed Ala-Tyr-Ile-Gln-Asn-Ala-Ala-Cys-Leu-Gly-NH2 (SEQ ID NO:152) (peptide) | – | 0% | 1% | –
Re-complexed Ala-Tyr-Ile-Gln-Asn-Ala-Ala-Leu-Cys-Gly-NH2 (SEQ ID NO:151) (peptide) | – | 0% | 0% | –
Re-complexed Ala-Tyr-Ile-Gln-Asn-Ala-Ala-Leu-Gly-Cys-NH2 (SEQ ID NO:150) (peptide) | – | 0% | 0% | –
Re-complexed Ala-Tyr-Ile-Gln-Asn-Ala-Cys-Ala-Leu-Gly-NH2 (SEQ ID NO:154) (peptide) | – | 31% | 0% | –
Re-complexed Ala-Tyr-Ile-Gln-Asn-Ala-Cys-Pro-Leu-Gly-NH2 (SEQ ID NO:153) (peptide) | – | 2% | 0% | –
Re-complexed Ala-Tyr-Ile-Gln-Asn-Ala-Pro-Leu-Gly-Cys-NH2 (SEQ ID NO:149) (peptide) | – | 6% | 0% | –
Re-complexed Ala-Tyr-Ile-Gln-Asn-Cys-Ala-Pro-Leu-Gly-NH2 (SEQ ID NO:155) (peptide) | – | 42% | 0% | –
Re-complexed Ala-Tyr-Ile-Gln-Cys-Asn-Ala-Pro-Leu-Gly-NH2 (SEQ ID NO:156) (peptide) | – | 18% | 0% | –
Re-complexed Sar-Arg-Cys-Val-Tyr-Ile-His-Pro-Thr (SEQ ID NO:165) (peptide) | – | – | – | % Inhibition at 1 µM [4]: 1%
Re-complexed Sar-Arg-Val-Cys-Tyr-Ile-His-Pro-Thr (SEQ ID NO:164) (peptide) | – | – | – | % Inhibition at 1 µM [4]: 1%
Re-complexed Sar-Arg-Val-Tyr-Cys-Ile-His-Pro-Thr (SEQ ID NO:163) (peptide) | – | – | – | % Inhibition at 1 µM [4]: 12%
Re-complexed Sar-Arg-Val-Tyr-Ile-Cys-His-Pro-Thr (SEQ ID NO:162) (peptide) | – | – | – | % Inhibition at 1 µM [4]: 20%
Re-complexed Sar-Arg-Val-Tyr-Ile-His-Cys-Gly-Thr (SEQ ID NO:166) (peptide) | – | – | – | % Inhibition at 1 µM [4]: 11%
Re-complexed Sar-Arg-Val-Tyr-Ile-His-Cys-Pro-Thr (SEQ ID NO:161) (peptide) | – | – | – | % Inhibition at 1 µM [4]: 60%
Re-complexed Sar-Arg-Val-Tyr-Ile-His-Gly-Cys-Thr (SEQ ID NO:160) (peptide) | – | – | – | % Inhibition at 1 µM [4]: 5%

Source: patent EP1379283B1, “IDENTIFICATION OF TARGET-SPECIFIC FOLDING SITES IN PEPTIDES AND PROTEINS” (Palatin Technologies, Inc., priority 2000, dated 2002)
